Experimental data as given in patent publication US20120237442A1 (published 2012).

Assays:
human CD20 [1] = biological target: T1, human CD20 (human, UniProt P11836 1-297); assay: ELISA, reference veltuzumab
T1 construct: whole, on cells
T1 sequence (looked up): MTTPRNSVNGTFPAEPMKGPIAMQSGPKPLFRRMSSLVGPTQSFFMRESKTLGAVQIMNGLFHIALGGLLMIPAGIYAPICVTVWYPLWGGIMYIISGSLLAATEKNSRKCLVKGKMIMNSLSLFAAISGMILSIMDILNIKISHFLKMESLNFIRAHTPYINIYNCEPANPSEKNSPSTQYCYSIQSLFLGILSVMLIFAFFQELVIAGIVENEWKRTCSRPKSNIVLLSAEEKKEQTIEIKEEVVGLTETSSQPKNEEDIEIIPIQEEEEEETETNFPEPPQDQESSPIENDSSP

human CD20 [2] = biological target: T1, human CD20; assay: flow cytometry on live NHL cells, reference veltuzumab

fold higher binding avidity compared to veltuzumab (human CD20 [1]): 3 fold
fold slower off-rate compared to veltuzumab (human CD20 [2]): 3 fold
B1: 20-(20)-(20) (antibody)
heavy 1: not shown
heavy 2: not shown
light: DIQLTQSPSSLSASVGDRVTMTCRASSSVSYIHWFQQKPGKAPKPWIYATSNLASGVPVRFSGSGSGTDYTFTISSLQPEDIATYYCQQWTSNPPTFGGGTKLEIKRTVAAPSVFIFPPSDEQLKSGTASVVCLLNNFYPREAKVQWKVDNALQSGNSQESVTEQDSKDSTYSLSSTLTLSKADYEKHKVYACEVTHQGLSSPVTKSFNRGEC
modifications: DNL complex locked by disulfide bridges between the cysteines of AD2 and DDD2. Stoichiometry: 2 IgG-AD2 heavy chains, 4 Fd-DDD2 chains, 6 kappa chains. Each unique chain is listed once.
notes: One Fc and 6 anti-CD20 Fabs; also called Hex-hA20; HexAb of veltuzumab
